Results on nine substances are retold here after patent US20200024330A1.

One may read the IC50 as the point on the concentration scale where inhibition reaches its midpoint.

Holding throughout (experiment): cell-based or functional assay
Assay [1] has as its target HIV-1 Env of pseudovirus MGRM-Chronic-B-002, clade B (HIV-1).
Assay [2] has as its target HIV-1 Env of pseudovirus MGRM-Chronic-B-003, clade B (HIV-1).
Assay [3] has as its target HIV-1 VLGCA1 envelope glycoprotein (Env) on pseudovirus (HIV-1).
Assay [4] deals with HIV-1 MGRM-C-019 Env (HIV-1).
Assay [5] deals with HIV-1 Env of isolate MGRM-AE-003 (HIV-1).
For assay [6], the target named is HIV-1 Env of isolate MGRM-D-021 (clade D) (HIV-1).
In assay [7] the target is HIV-1 MGRM-C-023 Env (HIV-1).
In assay [8] the target is HIV-1 MGRM-F1-020 Env (pseudovirus) (HIV-1).
In assay [9] the target is HIV-1 MGRM-A-005 envelope glycoprotein (Env) (HIV-1).
For assay [10], the target named is HIV-1 Env of pseudovirus APV_13, clade B (HIV-1).
For assay [11], the target named is HIV-1 MGRM-C-017 Env (HIV-1).
The target of assay [12] is HIV-1 MGRM-F1-016 Env (pseudovirus) (HIV-1).
For assay [13], the target named is HIV-1 Env of pseudovirus THR0.18 (Acute), clade B (HIV-1).
The target in assay [14] is HIV-1 MGRM-A-012 envelope glycoprotein (Env) (HIV-1).
In assay [15] the target is HIV-1 MGRM-A-008 envelope glycoprotein (Env) (HIV-1).
Assay [16] deals with HIV-1 Env of pseudovirus 93TH305, clade B (HIV-1).
Assay [17] has as its target HIV-1 Env of pseudovirus TRJ0.58 (Acute), clade B (HIV-1).
In assay [18] the target is HIV-1 Env of pseudovirus QH0692.42 (Acute), clade B (HIV-1).
Assay [19] has as its target HIV-1 Env of isolate 92UG046 (HIV-1).
The target in assay [20] is HIV-1 Env of isolate MGRM-Chronic-B-004 (HIV-1).
In assay [21] the target is HIV-1 Env of isolate QH0692.42 (HIV-1).
Assay [22] has as its target HIV-1 Env of isolate MGRM-F1-015 (subtype F), on pseudovirus (HIV-1).
The target in assay [23] is HIV-1 Env of isolate MGRM-F1-022 (subtype F), on pseudovirus (HIV-1).
The target in assay [24] is HIV-1 JR-CSF Env V120A (HIV-1 (isolate JR-CSF)) (UniProt P20871).
For assay [25], the target named is HIV-1 Env of isolate MGRM-A-008 (clade A), on pseudovirus (HIV-1).
The target in assay [26] is HIV-1 Env of isolate 92UG037 (HIV-1).
The target in assay [27] is HIV-1 JR-CSF Env L179A (HIV-1 (isolate JR-CSF)) (UniProt P20871).
The target of assay [28] is HIV-1 Env of isolate MGRM-D-012 (HIV-1).
Assay [29] concerns the target HIV-1 Env of isolate MGRM-C-009 (HIV-1).
For assay [30], the target named is HIV-1 Env of isolate 94UG103 (HIV-1).
For assay [31], the target named is HIV-1 Env of isolate MGRM-D-003 (HIV-1).
For assay [32], the target named is HIV-1 Env of isolate 92WR024 (HIV-1).
Assay [33] concerns the target HIV-1 Env of isolate APV-6 (pseudovirus) (HIV-1 isolate APV-6, subtype B).
Assay [34] deals with HIV-1 Env of isolate MGRM-C-027 (HIV-1).

5329_C19 (PGT-136) (antibody), sequence (VH): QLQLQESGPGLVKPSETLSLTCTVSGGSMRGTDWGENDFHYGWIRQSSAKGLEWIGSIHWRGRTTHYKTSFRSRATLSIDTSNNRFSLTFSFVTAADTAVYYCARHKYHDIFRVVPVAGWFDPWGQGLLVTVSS
5329_C19 (PGT-136) (antibody), sequence (VL): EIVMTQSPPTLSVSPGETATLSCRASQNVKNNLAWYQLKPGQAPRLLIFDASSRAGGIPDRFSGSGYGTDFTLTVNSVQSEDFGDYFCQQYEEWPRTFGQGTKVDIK
5345_I01 (PGT-137) (antibody), sequence (VH): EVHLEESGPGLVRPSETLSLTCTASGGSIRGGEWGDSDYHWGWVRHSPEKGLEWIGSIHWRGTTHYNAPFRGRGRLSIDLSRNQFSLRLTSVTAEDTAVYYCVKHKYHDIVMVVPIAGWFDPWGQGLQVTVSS
5345_I01 (PGT-137) (antibody), sequence (VL): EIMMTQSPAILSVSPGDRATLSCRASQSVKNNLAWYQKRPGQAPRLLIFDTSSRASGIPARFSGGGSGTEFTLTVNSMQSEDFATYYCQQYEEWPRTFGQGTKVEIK

For 2F5 (antibody), the IC50 (µg/ml), pseudovirus neutralization in assay [1] was 1.25 µg/mL; in assay [2] it was 1 µg/mL; in [3], 3.9 µg/mL; in assay [5] it was 0.24 µg/mL; in [6], > 50 µg/mL; in assay [8], 0.59 µg/mL. Moreover, the IC50 (µg/ml), pseudovirus neutralization in assay [9] was 5.7 µg/mL; in assay [10], 3.81 µg/mL; in assay [12], 21.5 µg/mL; in assay [13] it was > 50 µg/mL; in [14], 2.36 µg/mL; in assay [15], > 50 µg/mL. The IC50 (µg/ml), pseudovirus neutralization in assay [16] is 7.61 µg/mL; in [17], > 50 µg/mL; in assay [18], 5.42 µg/mL. In addition, the IC50 in [4], in assay [7] and in [11] was > 50 µg/mL in each case.
For 2G12 (antibody), the IC50 (µg/ml), pseudovirus neutralization in assay [1] was > 50 µg/mL; in assay [2], 0.06 µg/mL; in [3], > 50 µg/mL; in [5], > 50 µg/mL; in assay [6], 23 µg/mL; in assay [8] it was > 50 µg/mL. Besides, the IC50 (µg/ml), pseudovirus neutralization was > 50 µg/mL in assay [9]; 9.24 µg/mL in [10]; > 50 µg/mL in [12]; > 50 µg/mL in assay [13]; > 50 µg/mL in assay [14]; > 50 µg/mL in [15]. Further, the IC50 (µg/ml), pseudovirus neutralization is 0.55 µg/mL in assay [16], > 50 µg/mL in assay [17] and 4.39 µg/mL in [18]. Moreover, the half-maximal inhibitory concentration (IC50) in assay [4], in assay [7] and in [11] was > 50 µg/mL in each case.
For 4E10 (antibody), the IC50 (µg/ml), pseudovirus neutralization in assay [1] turned out to be 2.19 µg/mL; in assay [2], 3.5 µg/mL; in assay [3], 4.58 µg/mL; in [5], 0.34 µg/mL; in assay [6], 13.3 µg/mL; in [8], 0.66 µg/mL. Moreover, the IC50 (µg/ml), pseudovirus neutralization came to 4.09 µg/mL in [9]; 7.33 µg/mL in assay [10]; 7.61 µg/mL in assay [12]; 4.68 µg/mL in [13]; 4.27 µg/mL in assay [14]; 7.59 µg/mL in assay [15]. Besides, the IC50 (µg/ml), pseudovirus neutralization in assay [16] turned out to be 12.3 µg/mL; in [17], 11.9 µg/mL; in assay [18], 12.7 µg/mL. In addition, the results for the IC50 in assay [4], in assay [7] and in [11] were 3.49 µg/mL, 1.95 µg/mL and 1.47 µg/mL, respectively.
Regarding 5114_A19 (PGT-128) (antibody), the IC50 in [19] was > 50 µg/mL; in assay [20], 0.009 µg/mL; in [21], 0.029 µg/mL; in [28] it was > 50 µg/mL; in [29], > 50 µg/mL; in assay [31], 0.019 µg/mL. Moreover, in assay [34], the concentration for half-maximal inhibition (IC50) came out at 0.081 µg/mL. The values for the IC50, pseudovirus neutralization in assay [22] and in assay [23] were > 50 µg/mL and 4.54 µg/mL, respectively. The Fold IC50 increase relative to wild-type was 1.4 fold in assay [24] and 2.8 fold in assay [27]. Further, the IC50, single-round pseudovirus neutralization in assay [25] was > 50 µg/mL. Besides, the neutralization IC50 is 0.006 µg/mL in assay [26], 0.011 µg/mL in assay [30] and > 50 µg/mL in assay [32]. In assay [33], this substance displayed an IC50 (µg/mL) neutralization of 0.007 µg/mL.
For 5136_H01 (PGT-131) (antibody), the concentration for half-maximal inhibition (IC50) was > 50 µg/mL in assay [19]; 0.04 µg/mL in assay [20]; > 50 µg/mL in [21]; > 50 µg/mL in assay [28]; > 50 µg/mL in [29]; 19.6 µg/mL in assay [31]. This substance gave a concentration for half-maximal inhibition (IC50) in assay [34] of 0.065 µg/mL. In addition, the IC50, pseudovirus neutralization in [22] and in [23] was > 50 µg/mL in each case. In addition, the Fold IC50 increase relative to wild-type in assay [24] was 0.7 fold; in assay [27] it was 4.8 fold. Also, the IC50, single-round pseudovirus neutralization in assay [25] is > 50 µg/mL. Also, the neutralization IC50 in assay [26] is 0.048 µg/mL; in [30], 1.1 µg/mL; in assay [32], > 50 µg/mL. The IC50 (µg/mL) neutralization in assay [33] was > 50 µg/mL.
In the case of 5147_N06 (PGT-130) (antibody), the half-inhibitory concentration (IC50) was > 50 µg/mL in assay [19]; 0.01 µg/mL in assay [20]; > 50 µg/mL in [21]; > 50 µg/mL in assay [28]; > 50 µg/mL in assay [29]; 0.651 µg/mL in assay [31]. The substance further showed an IC50 in [34] of 0.008 µg/mL. Further, the IC50, pseudovirus neutralization in assay [22] and in assay [23] was > 50 µg/mL in each case. For the same substance, the Fold IC50 increase relative to wild-type in assay [24] amounted to 0.8 fold; in assay [27], 2.4 fold. Besides, the IC50, single-round pseudovirus neutralization in assay [25] is > 50 µg/mL. Besides, the neutralization IC50 in assay [26] is 0.061 µg/mL; in assay [30], 1.4 µg/mL; in [32] it was > 50 µg/mL. Also, the IC50 (µg/mL) neutralization in [33] is > 50 µg/mL.
Turning to 5329_C19 (PGT-136) (antibody), the IC50 in assay [19], in assay [20], in assay [21], in [28], in assay [29] and in assay [31] was > 50 µg/mL throughout. Further, in [34], the 50% inhibitory concentration (IC50) was > 50 µg/mL. Further, the IC50, pseudovirus neutralization in assay [22] was > 50 µg/mL; in [23], 2.42 µg/mL. In addition, the IC50, single-round pseudovirus neutralization in [25] is > 50 µg/mL. Moreover, the neutralization IC50 in assay [26], in assay [30] and in [32] was > 50 µg/mL throughout. Besides, the IC50 (µg/mL) neutralization in [33] was > 50 µg/mL.
On to 5343_B08 (PGT-135) (antibody), for which the IC50 in [19], in assay [20], in assay [21], in [28], in assay [29] and in [31] was > 50 µg/mL each time. The IC50 in assay [34] is > 50 µg/mL. The IC50, pseudovirus neutralization in assay [22] stood at 1.11 µg/mL; in assay [23], 0.964 µg/mL. In addition, the values for the Fold IC50 increase relative to wild-type in [24] and in [27] were 1.4 fold and 1.2 fold, respectively. The IC50, single-round pseudovirus neutralization in assay [25] was > 50 µg/mL. For the same substance, the values for the neutralization IC50 in [26], in assay [30] and in [32] were 3.67 µg/mL, > 50 µg/mL and > 50 µg/mL, respectively. Moreover, the IC50 (µg/mL) neutralization in assay [33] is > 50 µg/mL.
In the case of 5345_I01 (PGT-137) (antibody), the half-maximal inhibitory concentration (IC50) in assay [19], in assay [20], in assay [21], in [28], in assay [29] and in [31] was > 50 µg/mL in each case. Also, in assay [34], the IC50 is > 50 µg/mL. Also, the IC50, pseudovirus neutralization is > 50 µg/mL in assay [22] and 6.23 µg/mL in [23]. The IC50, single-round pseudovirus neutralization in assay [25] is > 50 µg/mL. In addition, the neutralization IC50 in assay [26], in [30] and in [32] was > 50 µg/mL each time. For the same substance, the IC50 (µg/mL) neutralization in assay [33] was > 50 µg/mL.
